Literature values, collected in article PMC8266389.

Key:
[1] = target: Cripto-1 (Homo sapiens) (UniProt P13385)
[2] = target: Cryptic (Homo sapiens) (UniProt P0CG37)
[3] = target: ACTRIIB (Homo sapiens) (UniProt Q13705)
[4] = target: BMPRII (Homo sapiens) (UniProt Q13873)
[5] = target: ALK4 (Homo sapiens) (UniProt P36896)
[6] = target: ACTRIIA (Homo sapiens) (UniProt P27037)
UniProt P27037, sequence (P27037 20-135): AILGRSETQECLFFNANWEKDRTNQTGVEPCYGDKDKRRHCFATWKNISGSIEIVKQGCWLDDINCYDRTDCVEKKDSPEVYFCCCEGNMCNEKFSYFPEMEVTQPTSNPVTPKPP

UniProt Q13705, sequence (Q13705 19-137): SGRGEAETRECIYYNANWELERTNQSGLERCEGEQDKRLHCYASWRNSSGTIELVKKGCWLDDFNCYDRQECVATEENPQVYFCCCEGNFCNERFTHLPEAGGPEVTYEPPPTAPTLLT
UniProt P0CG37, sequence (P0CG37 26-158): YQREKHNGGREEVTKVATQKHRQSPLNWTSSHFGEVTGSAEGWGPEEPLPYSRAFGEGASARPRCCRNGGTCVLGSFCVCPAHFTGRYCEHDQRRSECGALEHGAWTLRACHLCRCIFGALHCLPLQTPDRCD
UniProt P36896, sequence (P36896 24-126): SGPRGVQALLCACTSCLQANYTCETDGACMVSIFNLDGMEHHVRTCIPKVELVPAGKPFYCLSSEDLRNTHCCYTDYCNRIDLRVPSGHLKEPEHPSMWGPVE
UniProt Q13873, sequence (Q13873 27-150): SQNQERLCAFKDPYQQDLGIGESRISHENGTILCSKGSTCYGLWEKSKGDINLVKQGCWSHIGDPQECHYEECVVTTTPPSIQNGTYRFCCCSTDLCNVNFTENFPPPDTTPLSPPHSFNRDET
UniProt P13385, sequence (P13385 31-150): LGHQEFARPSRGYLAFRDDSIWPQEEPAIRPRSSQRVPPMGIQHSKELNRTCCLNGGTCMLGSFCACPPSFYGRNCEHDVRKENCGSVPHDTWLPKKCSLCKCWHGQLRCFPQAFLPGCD

Kd [1]: 0.016 µM
Kd [2]: 2 µM
Kd [3]: 0.01 µM
Kd [4]: 0.000149 µM
Kd [5]: 0.015 µM
Kd [6]: 0.1 µM
Substance: Nodal (from UniProt Q96S42)
